Data reported in US10864251B2, “Peptides of syndecan-1 for inhibiting angiogenesis” (Wisconsin Alumni Research Foundation, priority 2006, dated 2020).
Where no end group is shown, it is not given here.

What was measured:
B82L fibroblasts = format: cell-based, mouse; settings: 6 h
Experimental: FIGS. 6A-6H—Inhibition of B82L fibroblast and HMEC-1 cell attachment and spreading on VN by synstatin82-130. B82L fibroblasts, which rely on the αvβ5 integrin for attachment to VN, and human dermal microvascular endothelial cells, which rely on both the αvβ3 and αvβ5 integrins for attachment to VN, were plated in the absence of peptide (FIGS. 6A, 6E) or in the presence of 0.1 (FIGS. 6B, 6F), 0.3 (FIGS. 6C, 6G) or 1 μM (FIGS. 6D, 6H) synstatin82-130 for 2 hr and processed as described in FIG. 2.
Cell adhesion and spreading assays were performed with modification to the previous procedures (Lebakken and Rapraeger, 1996. Briefly, human plasma vitronectin or fibronectin at 10-30 μg/ml were applied to nitrocellulose-coated ten well slides (Erie Scientific) and incubated for 1-2 h at 37° C. Slides were blocked with 1.0% heat-denatured bovine serum albumin for a minimum of 30 min at 37° C. Cells were detached from the substratum using 5 mM EDTA in Tris-buffered saline and resuspended in HEPES-buffered culture medium containing 0.1% heat-denatured BSA. Cells were plated at a density of 15,000 cells per well and allowed to attach and spread for 2 h prior to fixation in 4% paraformaldehyde in CMF-PBS. For fluorescence microscopy, fixed cells were permeabilized in 0.2% Triton X-100, labeled with rhodamine-conjugated phalloidin and analyzed using fluorescence microscopy. […]

[1] = tested on: mouse aortic endothelial cells; experiment: Cell spreading on VN, mouse aortic endothelial cells; format: cell-based; settings: 1 μM competitor
Experimental: FIGS. 10A-10D—Dependence of HMEC cell attachment and spreading on integrin activation by Sdc1 and its inhibition by SSTN. (FIG. 10A) HMECs were plated for 2 hr either on Sdc1-specific antibody B-B4 to engage Sdc1 or on VN (10 μg/ml coating concentration) to engage the αvβ3 and αvβ5 integrins. Blocking antibodies LM609 (10 μg/ml, specific for αvβ3) and P1F6 (10 μg/ml, specific for αvβ5), SSTN (0.5 μM) or recombinant mouse Sdc1 ectodomain (mS1ED, 5 μM) were added. The ligand mimetic antibody WOW1 was used to detect activated αvβ3 integrin on cells plated on B-B4. (FIG. 10B) HMECs were treated with siRNA oligo specific for human Sdc1 for 48 hr prior to plating on VN. Sdc1 expression was quantified by flow cytometry using human Sdc1-specific mAb B-B4 or a control mouse IgG. (FIG. 10C-10D) The percentage of cell attaching or attaching and spreading was quantified for HMECs, HAEC and MAECs plated on VN for 24 hr in the presence of mS1ED or SSTN, or after siRNA silencing of Sdc1 expression in the presence of mAb LM609 to block αvβ3 integrin, P1F6 to block αvβ5 integrin, or both antibodies.
The next test was whether agents that target Sdc1, especially competition with recombinant S1ED, will block the activity of these two integrins and thus block their interaction with VN. […]

[2] = tested on: human aortic endothelial cells (HAEC); experiment: Cell attachment and spreading on VN, HAECs; format: cell-based
Experimental: FIG. 2—Human aortic endothelial cells rely on αvβ3 and αvβ5 integrins for spreading on VN. Human aortic endothelial cells (HAECs) were suspended and replated on 10 μg/ml VN in the presence of integrin inhibitory antibodies mAb 13 (specific for β1-containing integrins; this will inhibit the αvβ1 integrin), LM609 (specific for the αvβ3 integrin) and P1F6 (specific for the αvβ5 integrin), or combinations of these mAbs. After 2 hr, the cells were fixed, stained with Alexa488-conjugated phalloidin to aid in visualization, and observed by fluorescence microscopy to document integrin-dependent spreading. Inhibition of spreading requires simultaneous inhibition of both αvβ3 and αvβ5 integrins.
FIG. 3—αvβ3 and αvβ5 integrin-mediated spreading of human aortic endothelial cells on VN is disrupted by recombinant Sdc1 ectodomain fusion protein. HAECs were plated on VN in the presence of no competitor, 1-10 μM GST-mS1ED (recombinant mouse Sdc1 ectodomain expressed as a fusion protein with GST) or GST alone.
FIG. 4—Inhibition of HAEC spreading on VN by silencing of Sdc-1. […]
FIGS. 10A-10D—Dependence of HMEC cell attachment and spreading on integrin activation by Sdc1 and its inhibition by SSTN. […] Sdc1 expression was quantified by flow cytometry using human Sdc1-specific mAb B-B4 or a control mouse IgG. […]

“SNTETAFTSVLPAGEKPEEGEPVLHVEAEPGFTARDKEKEVTTRPRETV [synstatin82-130]” was tested, and the IC50 (B82L fibroblasts) was roughly 100 nM.

B1: S1ED: recombinant mouse Sdc1 ectodomain (amino acids 18-251), expressed in bacteria as GST fusion or 6×His-tagged protein (protein)
chain: QPALPQIVAVNVPPEDQDGSGDDSDNFSGSGTGALPDTLSRQTPSTWKDVWLLTATPTAPEPTSSNTETAFTSVLPAGEKPEEGEPVLHVEAEPGFTARDKEKEVTTRPRETVQLPITQRASTVRVTTAQAAVTSHPHGGMQPGLHETSAPTAPGQPDHQPPRVEGGGTSVIKEVVEDGTANQLPAGEGSGEQDFTFETSGENTAVAAVEPGLRNQPPVDEGATGASQSLLDRK
modifications: left off: a dimerising Fc or GST
notes: recombinant mouse Sdc1 ectodomain (amino acids 18-251), expressed in bacteria as GST fusion or 6×His-tagged protein
In the case of B1, the “spreading on VN” value [1] is reported as “blocked”, the IC50 ([2]; read-out: IC50, cell spreading on vitronectin) is reported as roughly 1000 nM and the “cell spreading on VN” value ([2]; soluble competitor 1-10 μM (FIG. 3)) is reported as “blocked”.
